Values quoted from earlier work as cited in patent US20090023631A1, “Composition and Method of Use for Soft Tissue Augmentation/Drug Delivery” (priority 2007, published 2009).

Test system: stage III and IV ulcers
Details: multiple studies

B1: recombinant human PDGF-BB: platelet-derived growth factor, commercial product available as recombinant human PDGF-BB (protein, UniProt P01127 82-190, looked up)
Platelet-derived growth …: SLGSLTIAEPAMIAECKTRTEVFEISRRLIDRTNANFLVWPPCVEVQRCSGCCNNRNVQCRPTQVQLRPVQVRKIEIVRKKPIFKKATVTLEDHLACKCETVAAARPVT
modifications: BB homodimer
Q: What does the source list for B1?
A: healing time: reduce healing time; incidence of complete wound healing: improve the incidence of complete wound healing
